In US20050181997A1:

Target: Flt3 3T3 cells (mFlt3/fms 3T3 cells and/or Stk 3T3 cells)
Experiment: cell-based or functional assay

Pv-FRIL (FRIL family member from Phaseolus vulgaris, red kidney bean)
Specific Activity (u/mg) in the Flt3 3T3 assay, Superdex 75 step: 244000 u/mg
